According to the Human Domainome abundance scans (Beltran et al. 2025):
± gives the uncertainty stated by the source.

B1: POU domain, class 2, transcription factor 1, residues 285 to 354; numbered along this chain, P14859 (parent)
chain: LEELEQFAKTFKQRRIKLGFTQGDVGLAMGKLYGNDFSQTTISRFEALNLSFKNMCKLKPLLEKWLNDAE

Variants of: B1
Test: abundance fitness (aPCA) (normalised: wild type 0, dead -1); higher = more abundant; growth selection in yeast, the domain comes from the species named
Settings: Homo sapiens

Variant | abundance fitness
LEELEQFAKTFKQRRIKLGFTQGDVGLAMGKLYGNDFSQTTISRFEALNISFKNMCKLKPLLEKWLNDAE | -0.135 ± 0.083
LEELEQFAKTFKQRRIKLGFTQGDVGLAMGKLYGNDFSQTTISRFEALNMSFKNMCKLKPLLEKWLNDAE | 0.038 ± 0.046
LEELEQFAKTFKQRRIKLGFTQGDVGLAMGKLYGNDFSQTTISRFEALNNSFKNMCKLKPLLEKWLNDAE | -0.385 ± 0.075
LEELEQFAKTFKQRRIKLGFTQGDVGLAMGKLYGNDFSQTTISRFEALNPSFKNMCKLKPLLEKWLNDAE | -0.678 ± 0.026
LEELEQFAKTFKQRRIKLGFTQGDVGLAMGKLYGNDFSQTTISRFEALNQSFKNMCKLKPLLEKWLNDAE | -0.207 ± 0.03
LEELEQFAKTFKQRRIKLGFTQGDVGLAMGKLYGNDFSQTTISRFEALNRSFKNMCKLKPLLEKWLNDAE | -0.738 ± 0.023
LEELEQFAKTFKQRRIKLGFTQGDVGLAMGKLYGNDFSQTTISRFEALNSSFKNMCKLKPLLEKWLNDAE | -0.151 ± 0.025
LEELEQFAKTFKQRRIKLGFTQGDVGLAMGKLYGNDFSQTTISRFEALNTSFKNMCKLKPLLEKWLNDAE | -0.073 ± 0.026
LEELEQFAKTFKQRRIKLGFTQGDVGLAMGKLYGNDFSQTTISRFEALNVSFKNMCKLKPLLEKWLNDAE | -0.1 ± 0.042
LEELEQFAKTFKQRRIKLGFTQGDVGLAMGKLYGNDFSQTTISRFEALNWSFKNMCKLKPLLEKWLNDAE | -0.148 ± 0.04
LEELEQFAKTFKQRRIKLGFTQGDVGLAMGKLYGNDFSQTTISRFEALNYSFKNMCKLKPLLEKWLNDAE | -0.03 ± 0.053
LEELEQFAKTFKQRRIKLGFTQGDVGLAMGKLYGNDFSQTTISRFEALNLAFKNMCKLKPLLEKWLNDAE | -0.055 ± 0.021
LEELEQFAKTFKQRRIKLGFTQGDVGLAMGKLYGNDFSQTTISRFEALNLCFKNMCKLKPLLEKWLNDAE | -0.086 ± 0.04
LEELEQFAKTFKQRRIKLGFTQGDVGLAMGKLYGNDFSQTTISRFEALNLEFKNMCKLKPLLEKWLNDAE | 0.003 ± 0.035
LEELEQFAKTFKQRRIKLGFTQGDVGLAMGKLYGNDFSQTTISRFEALNLFFKNMCKLKPLLEKWLNDAE | -0.807 ± 0.083
LEELEQFAKTFKQRRIKLGFTQGDVGLAMGKLYGNDFSQTTISRFEALNLGFKNMCKLKPLLEKWLNDAE | 0.028 ± 0.021
LEELEQFAKTFKQRRIKLGFTQGDVGLAMGKLYGNDFSQTTISRFEALNLHFKNMCKLKPLLEKWLNDAE | -0.076 ± 0.045
LEELEQFAKTFKQRRIKLGFTQGDVGLAMGKLYGNDFSQTTISRFEALNLIFKNMCKLKPLLEKWLNDAE | -0.801 ± 0.22
LEELEQFAKTFKQRRIKLGFTQGDVGLAMGKLYGNDFSQTTISRFEALNLKFKNMCKLKPLLEKWLNDAE | -0.023 ± 0.036
LEELEQFAKTFKQRRIKLGFTQGDVGLAMGKLYGNDFSQTTISRFEALNLLFKNMCKLKPLLEKWLNDAE | -0.579 ± 0.026
LEELEQFAKTFKQRRIKLGFTQGDVGLAMGKLYGNDFSQTTISRFEALNLMFKNMCKLKPLLEKWLNDAE | -0.472 ± 0.04
LEELEQFAKTFKQRRIKLGFTQGDVGLAMGKLYGNDFSQTTISRFEALNLNFKNMCKLKPLLEKWLNDAE | -0.099 ± 0.073
LEELEQFAKTFKQRRIKLGFTQGDVGLAMGKLYGNDFSQTTISRFEALNLPFKNMCKLKPLLEKWLNDAE | 0.002 ± 0.022
LEELEQFAKTFKQRRIKLGFTQGDVGLAMGKLYGNDFSQTTISRFEALNLQFKNMCKLKPLLEKWLNDAE | -0.09 ± 0.028
LEELEQFAKTFKQRRIKLGFTQGDVGLAMGKLYGNDFSQTTISRFEALNLRFKNMCKLKPLLEKWLNDAE | -0.056 ± 0.02
LEELEQFAKTFKQRRIKLGFTQGDVGLAMGKLYGNDFSQTTISRFEALNLTFKNMCKLKPLLEKWLNDAE | -0.035 ± 0.028

Variant | abundance fitness
LEELEQFAKTFKQRRIKLGFTQGDVGLAMGKLYGNDFSQTTISRFEALNLWFKNMCKLKPLLEKWLNDAE | -0.982 ± 0.052
LEELEQFAKTFKQRRIKLGFTQGDVGLAMGKLYGNDFSQTTISRFEALNLYFKNMCKLKPLLEKWLNDAE | -0.496 ± 0.072
LEELEQFAKTFKQRRIKLGFTQGDVGLAMGKLYGNDFSQTTISRFEALNLSAKNMCKLKPLLEKWLNDAE | 0.017 ± 0.079
LEELEQFAKTFKQRRIKLGFTQGDVGLAMGKLYGNDFSQTTISRFEALNLSCKNMCKLKPLLEKWLNDAE | -0.037 ± 0.031
LEELEQFAKTFKQRRIKLGFTQGDVGLAMGKLYGNDFSQTTISRFEALNLSDKNMCKLKPLLEKWLNDAE | 0.007 ± 0.043
LEELEQFAKTFKQRRIKLGFTQGDVGLAMGKLYGNDFSQTTISRFEALNLSEKNMCKLKPLLEKWLNDAE | -0.035 ± 0.039
LEELEQFAKTFKQRRIKLGFTQGDVGLAMGKLYGNDFSQTTISRFEALNLSGKNMCKLKPLLEKWLNDAE | -0.059 ± 0.025
LEELEQFAKTFKQRRIKLGFTQGDVGLAMGKLYGNDFSQTTISRFEALNLSHKNMCKLKPLLEKWLNDAE | 0.059 ± 0.046
LEELEQFAKTFKQRRIKLGFTQGDVGLAMGKLYGNDFSQTTISRFEALNLSIKNMCKLKPLLEKWLNDAE | 0.013 ± 0.03
LEELEQFAKTFKQRRIKLGFTQGDVGLAMGKLYGNDFSQTTISRFEALNLSKKNMCKLKPLLEKWLNDAE | -0.024 ± 0.032
LEELEQFAKTFKQRRIKLGFTQGDVGLAMGKLYGNDFSQTTISRFEALNLSLKNMCKLKPLLEKWLNDAE | -0.005 ± 0.019
LEELEQFAKTFKQRRIKLGFTQGDVGLAMGKLYGNDFSQTTISRFEALNLSMKNMCKLKPLLEKWLNDAE | -0.026 ± 0.026
LEELEQFAKTFKQRRIKLGFTQGDVGLAMGKLYGNDFSQTTISRFEALNLSNKNMCKLKPLLEKWLNDAE | -0.039 ± 0.041
LEELEQFAKTFKQRRIKLGFTQGDVGLAMGKLYGNDFSQTTISRFEALNLSPKNMCKLKPLLEKWLNDAE | -0.324 ± 0.17
LEELEQFAKTFKQRRIKLGFTQGDVGLAMGKLYGNDFSQTTISRFEALNLSQKNMCKLKPLLEKWLNDAE | -0.059 ± 0.039
LEELEQFAKTFKQRRIKLGFTQGDVGLAMGKLYGNDFSQTTISRFEALNLSRKNMCKLKPLLEKWLNDAE | -0.001 ± 0.022
LEELEQFAKTFKQRRIKLGFTQGDVGLAMGKLYGNDFSQTTISRFEALNLSSKNMCKLKPLLEKWLNDAE | -0.017 ± 0.029
LEELEQFAKTFKQRRIKLGFTQGDVGLAMGKLYGNDFSQTTISRFEALNLSTKNMCKLKPLLEKWLNDAE | 0.02 ± 0.072
LEELEQFAKTFKQRRIKLGFTQGDVGLAMGKLYGNDFSQTTISRFEALNLSVKNMCKLKPLLEKWLNDAE | 0.009 ± 0.021
LEELEQFAKTFKQRRIKLGFTQGDVGLAMGKLYGNDFSQTTISRFEALNLSWKNMCKLKPLLEKWLNDAE | -0.002 ± 0.025
LEELEQFAKTFKQRRIKLGFTQGDVGLAMGKLYGNDFSQTTISRFEALNLSYKNMCKLKPLLEKWLNDAE | 0.001 ± 0.028
LEELEQFAKTFKQRRIKLGFTQGDVGLAMGKLYGNDFSQTTISRFEALNLSFANMCKLKPLLEKWLNDAE | 0.049 ± 0.021
LEELEQFAKTFKQRRIKLGFTQGDVGLAMGKLYGNDFSQTTISRFEALNLSFCNMCKLKPLLEKWLNDAE | 0.015 ± 0.03
LEELEQFAKTFKQRRIKLGFTQGDVGLAMGKLYGNDFSQTTISRFEALNLSFDNMCKLKPLLEKWLNDAE | -0.029 ± 0.057
LEELEQFAKTFKQRRIKLGFTQGDVGLAMGKLYGNDFSQTTISRFEALNLSFENMCKLKPLLEKWLNDAE | 0.039 ± 0.053
LEELEQFAKTFKQRRIKLGFTQGDVGLAMGKLYGNDFSQTTISRFEALNLSFFNMCKLKPLLEKWLNDAE | 0.041 ± 0.066

Variant | abundance fitness
LEELEQFAKTFKQRRIKLGFTQGDVGLAMGKLYGNDFSQTTISRFEALNLSFGNMCKLKPLLEKWLNDAE | -0.017 ± 0.023
LEELEQFAKTFKQRRIKLGFTQGDVGLAMGKLYGNDFSQTTISRFEALNLSFHNMCKLKPLLEKWLNDAE | -0.024 ± 0.058
LEELEQFAKTFKQRRIKLGFTQGDVGLAMGKLYGNDFSQTTISRFEALNLSFINMCKLKPLLEKWLNDAE | 0.089 ± 0.14
LEELEQFAKTFKQRRIKLGFTQGDVGLAMGKLYGNDFSQTTISRFEALNLSFLNMCKLKPLLEKWLNDAE | 0.008 ± 0.035
LEELEQFAKTFKQRRIKLGFTQGDVGLAMGKLYGNDFSQTTISRFEALNLSFMNMCKLKPLLEKWLNDAE | 0.078 ± 0.15
LEELEQFAKTFKQRRIKLGFTQGDVGLAMGKLYGNDFSQTTISRFEALNLSFNNMCKLKPLLEKWLNDAE | 0.063 ± 0.21
LEELEQFAKTFKQRRIKLGFTQGDVGLAMGKLYGNDFSQTTISRFEALNLSFPNMCKLKPLLEKWLNDAE | 0.007 ± 0.022
LEELEQFAKTFKQRRIKLGFTQGDVGLAMGKLYGNDFSQTTISRFEALNLSFQNMCKLKPLLEKWLNDAE | -0.019 ± 0.042
LEELEQFAKTFKQRRIKLGFTQGDVGLAMGKLYGNDFSQTTISRFEALNLSFRNMCKLKPLLEKWLNDAE | 0.015 ± 0.021
LEELEQFAKTFKQRRIKLGFTQGDVGLAMGKLYGNDFSQTTISRFEALNLSFSNMCKLKPLLEKWLNDAE | -0.006 ± 0.024
LEELEQFAKTFKQRRIKLGFTQGDVGLAMGKLYGNDFSQTTISRFEALNLSFTNMCKLKPLLEKWLNDAE | -0.028 ± 0.042
LEELEQFAKTFKQRRIKLGFTQGDVGLAMGKLYGNDFSQTTISRFEALNLSFVNMCKLKPLLEKWLNDAE | -0.048 ± 0.039
LEELEQFAKTFKQRRIKLGFTQGDVGLAMGKLYGNDFSQTTISRFEALNLSFYNMCKLKPLLEKWLNDAE | -0.122 ± 0.072
LEELEQFAKTFKQRRIKLGFTQGDVGLAMGKLYGNDFSQTTISRFEALNLSFKAMCKLKPLLEKWLNDAE | 0.019 ± 0.02
LEELEQFAKTFKQRRIKLGFTQGDVGLAMGKLYGNDFSQTTISRFEALNLSFKCMCKLKPLLEKWLNDAE | 0.011 ± 0.034
LEELEQFAKTFKQRRIKLGFTQGDVGLAMGKLYGNDFSQTTISRFEALNLSFKDMCKLKPLLEKWLNDAE | 0.08 ± 0.058
LEELEQFAKTFKQRRIKLGFTQGDVGLAMGKLYGNDFSQTTISRFEALNLSFKGMCKLKPLLEKWLNDAE | -0.018 ± 0.022
LEELEQFAKTFKQRRIKLGFTQGDVGLAMGKLYGNDFSQTTISRFEALNLSFKHMCKLKPLLEKWLNDAE | 0.004 ± 0.09
LEELEQFAKTFKQRRIKLGFTQGDVGLAMGKLYGNDFSQTTISRFEALNLSFKIMCKLKPLLEKWLNDAE | 0.054 ± 0.061
LEELEQFAKTFKQRRIKLGFTQGDVGLAMGKLYGNDFSQTTISRFEALNLSFKKMCKLKPLLEKWLNDAE | 0.009 ± 0.043
LEELEQFAKTFKQRRIKLGFTQGDVGLAMGKLYGNDFSQTTISRFEALNLSFKLMCKLKPLLEKWLNDAE | -0.005 ± 0.022
LEELEQFAKTFKQRRIKLGFTQGDVGLAMGKLYGNDFSQTTISRFEALNLSFKMMCKLKPLLEKWLNDAE | -0.005 ± 0.039
LEELEQFAKTFKQRRIKLGFTQGDVGLAMGKLYGNDFSQTTISRFEALNLSFKPMCKLKPLLEKWLNDAE | -0.135 ± 0.028
LEELEQFAKTFKQRRIKLGFTQGDVGLAMGKLYGNDFSQTTISRFEALNLSFKSMCKLKPLLEKWLNDAE | 0.009 ± 0.022
LEELEQFAKTFKQRRIKLGFTQGDVGLAMGKLYGNDFSQTTISRFEALNLSFKTMCKLKPLLEKWLNDAE | -0.008 ± 0.026
